Assay results reported in the supplement of paper PMC10567573.

B1: SETD8 (parent)
chain: GKQAPRKKAQGKTQQNRKLTDFYP
B2: MYBL2 (parent)
chain: VKKSCWTEEEDRIICEAHKVLGNR

Variants of: B1
Assay: protein stability index of a GFP-peptide fusion (GPS, HEK-293T) (PSI 1-6); higher = more stable
Conditions: c terminus: a fixed tail appended
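Further: lentivirally expressed fusions sorted by FACS into six bins by GFP to DsRed ratio, PSI derived from sequencing read proportions per bin multiplied by bin number.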

Protein stability index: each site, then its substitutions
L19: S 4.39; Q 3.84; R 4.33; W 2.97; Y 3.32; A 4.54; F 3.27; H 3.77; E 4.62; G 3.91; D 5.33; K 4
K8: G 3.85; F 1.63; P 3.76; M 3.47; H 2.99; R 2.75; Y 3.22; T 2.77; W 3.3; C 3.48; A 3.52; S 3.55; L 1.99; Q 4.11
K2: Q 3.4; N 3.11; R 3.07; G 2.67; M 3.05; W 3.69; F 3.34; L 4.09; T 2.46; V 3.99; Y 2.95
A4: V 1.83; N 3.23; I 3.09; Q 2.77; S 4.29; E 3.04; C 3.34; G 3.46; W 3.3; R 3.15; P 2.63; F 3.05
G1: Y 3.1; I 2.74; E 3.79; L 2.66; H 3; F 3.39; R 2.94; Q 3.8; C 2.98; P 4.24; N 2.88; S 3.17; K 3.75; M 2.6; V 3.12; T 3.2; A 3.04
G11: S 3.55; A 4.17; D 2.94; K 2.91; T 2.84; H 3.56; N 3.6; Y 3.21; L 3.27; P 3.46; R 2.66; E 3.42; M 3.29
Q15: C 2.15; L 2.76; S 3.26; N 3.07; D 3.71; H 3.76
Q14: M 3.64; Y 3.4; H 1.57; R 1.85; C 2.37; T 3.4; A 2.81; E 3.41; D 3.06; S 1.89; P 4.36
T13: Q 3.93; V 3.39; F 2.37; G 3.35; M 2.16; R 3.82; D 3.09; E 3.83; A 3.48; I 3.28; N 2.87
A9: M 2.54; H 2.6; P 3.43; D 3.57; I 3.08; C 2.77; N 4.09; Y 3.35
K7: M 3.72; S 2.48; F 2.42; E 2.82; D 3.07; N 2.21; Q 3.96; T 2.78; Y 3.06
R6: K 3.44; P 4.13; Y 2.65; H 3.07; A 3.42; G 3.55; W 2.48; E 3.29; S 3.46; N 4.12; V 2.68; D 3.67; T 3.21; C 2.82
Q10: F 3.28; A 3.52; M 2.55; I 2.86; P 2.65; E 2.78; R 3.16; W 2.08; D 3.17
K18: T 3.05; E 3.2; A 3.15; F 3.85; D 4.87; N 4.19; H 2.69; C 2.89; S 3.51; I 4.29; V 3.75; Q 3.45; L 2.56; Y 2.76
P24: H 4.02; N 2.18; R 2.67; F 3.48; Y 2.73; L 3.56; C 3.62; W 1.91; S 3.43; M 4.09; D 4.33; A 2.66
N16: A 3.02; M 3.37; Y 1.96; P 2.45; I 3.13; S 4.04; T 2.53; E 3.65
Q3: I 3.33; G 3.38; F 2.67; P 2.01; K 3.85; H 3.8; T 2.93; Y 3.58; A 2.63; R 4.32
D21: L 3.53; C 4.41; F 2.59; V 3.21; K 3.91; P 3.83; R 3.46; N 3.24; E 1.79; T 3.9; A 3.03; I 3.13
P5: A 2.52; Y 2.2; Q 3.75; G 4.29; M 3.08; I 3.36; W 2.57; K 3.35; L 2.74; V 3.18; S 4.65; C 1.99; F 2.95; H 2.85
Y23: D 4.64; T 5.12; V 4.05; I 4.07; C 4.28; K 5.33; S 4.39; L 3.96; N 4.83; Q 4.04; H 4.93
K12: C 2.19; G 3.37; L 3.21; Y 3.42; N 3.07; W 3.08; T 3.32; I 2.85; P 2.51; F 4.09; A 2.76; D 2.51
R17: H 2.88; K 2.59; G 3.91; T 2.61; E 3.13; D 3.8; L 2.32; N 3.34; P 3.06
F22: L 4.51; T 4.57; H 4.13; R 3.6; P 4.98; K 4.97; E 4.61; I 4.13; N 4.77; G 4.75; Q 4.17; M 4.7
T20: C 2.54; P 4.41; M 4.3; I 3.29; D 4.5; Q 4.11; F 3.06; E 4.22

Variants of: B2
Assay: as above
Conditions: c terminus: a fixed tail appended

Protein stability index of substitutions, site by site:
R24: T 3.95; V 3.47; A 3.42; W 1.86; P 3.7; Y 3.06; K 4.21; N 3.59; L 3.32; H 3.49; F 2.4; S 3.63; G 4.11; E 4.05; C 3.3; D 4.19; I 2.69; Q 4.15; M 2.86
G22: A 3.17; H 3.11; P 3.54; S 2.7; N 3.32; T 2.83; L 2.64; F 2.54; Y 2.79; R 2.99; Q 1.97; D 3.38; W 2.28; K 3.11; C 3.03; E 3.96; V 2.86; M 2.89; I 2.58
N23: D 3.64; C 3.23; K 2.59; M 2.1; H 3.71; S 2.9; I 2.63; W 2.59; L 2.35; G 2.57; Q 2.95; A 3.08; P 3.77; T 3.41; F 2.21; V 2.93; R 3.64; Y 3.01; E 3.96
L21: Y 3.71; W 3.33; S 3.3; N 3.83; Q 3.64; T 3.44; V 3.35; P 3.8
